Legend:
[1] = target: T1, human insulin-like growth factor 2 (IGF-2) (human, UniProt P01344 25-91); experiment: cell-based or functional assay
[2] = target: T2, human insulin-like growth factor 1 (IGF-1) (human, UniProt P05019 49-118); experiment: cell-based or functional assay
[3] = target: T1, human insulin-like growth factor 2 …; experiment: method not stated; affinity quoted in Example 3
[4] = target: T2, human insulin-like growth factor 1 …; experiment: method not stated; affinity quoted in Example 3

T2 sequence (P05019 49-118 limits assumed): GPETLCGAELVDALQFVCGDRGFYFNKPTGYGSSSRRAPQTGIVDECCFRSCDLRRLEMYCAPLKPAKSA
T1 sequence (P01344 25-91 limits assumed): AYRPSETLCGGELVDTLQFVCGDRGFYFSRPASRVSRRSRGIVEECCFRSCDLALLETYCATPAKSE

B1: MEDI-573 (antibody, human IgG2, lambda, V domains shown)
VH: QVQLVQSGAEVKKPGASVKVSCKASGYTFTSYDINWVRQATGQGLEWMGWMNPNSGNTGYAQKFQGRVTMTRNTSISTAYMELSSLRSEDTAVYYCARDPYYYYYGMDVWGQGTTVTVSS
VL: QSVLTQPPSVSAAPGQKVTISCSGSSSNIENNHVSWYQQLPGTAPKLLIYDNNKRPSGIPDRFSGSKSGTSATLGITGLQTGDEADYYCETWDTSLSAGRVFGGGTKLTVLG
notes: also called mAb 7.159.2; anti-IGF antibody
IC50 (µM), inhibition of IGF-2-stimulated proliferation of MG-63 cells (CellTiter-Glo) [1]: 5.8 µM
IC50 (µM), inhibition of IGF-2-stimulated proliferation of RD-ES cells (CellTiter-Glo) [1]: 2 µM
IC50 (µM), inhibition of IGF-2-stimulated proliferation of SAOS2 cells (CellTiter-Glo) [1]: 5.3 µM
IC50 (µM), inhibition of IGF-2-stimulated proliferation of SK-ES-1 cells (CellTiter-Glo) [1]: 20 µM
IC50 (µM), inhibition of IGF-1-stimulated proliferation of MG-63 cells (CellTiter-Glo) [2]: 223 µM
IC50 (µM), inhibition of IGF-1-stimulated proliferation of RD-ES cells (CellTiter-Glo) [2]: 40 µM
IC50 (µM), inhibition of IGF-1-stimulated proliferation of SAOS2 cells (CellTiter-Glo) [2]: 177 µM
IC50 (µM), inhibition of IGF-1-stimulated proliferation of SK-ES-1 cells (CellTiter-Glo) [2]: 20 µM
Kd [3]: 2 pM
Kd [4]: 0.000294 µM

From patent US20160324962A1 (AstraZeneca / MedImmune, published 2016)
